T1: Yfr024 SH3 (LSB3_YEAST), P43603
T1 chain: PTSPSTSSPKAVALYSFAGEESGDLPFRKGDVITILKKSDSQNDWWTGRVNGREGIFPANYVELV

T2: Boi1 SH3 (BOI1_YEAST), P38041
T2 chain: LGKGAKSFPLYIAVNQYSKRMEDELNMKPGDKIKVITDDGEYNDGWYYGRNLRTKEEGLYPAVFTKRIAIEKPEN

T3: Boi2 SH3 (BOI2_YEAST), P39969
T3 chain: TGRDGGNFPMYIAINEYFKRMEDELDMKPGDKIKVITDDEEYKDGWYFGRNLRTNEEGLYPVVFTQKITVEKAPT

T4: Yhr016c SH3 (YSC84_YEAST), P32793
T4 chain: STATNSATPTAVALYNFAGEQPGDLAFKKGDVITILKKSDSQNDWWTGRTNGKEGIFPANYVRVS

T5: Rvs167 SH3 (RV167_YEAST), P39743
T5 chain: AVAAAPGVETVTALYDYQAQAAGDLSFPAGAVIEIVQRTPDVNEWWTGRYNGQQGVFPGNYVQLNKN


Target: T1, Yfr024 SH3 (LSB3_YEAST), P43603
Test: SPOT array

Point of comparison: NRKPAEPTKPNNLD [YML075C 1024-1037], normalised SPOT signal, Boehringer light units (BLU); mean over the file's lines of this peptide 292. Against it:
- NSNPIDPLRSDRSV [YNL144C 502-515] — higher, 301
- NSRPQQPERRRFNS [YOR042W 296-309] — higher, 40900
- NQAPLEPLKPTATG [YIR006C 229-242] — lower, 25.1
- NSLPSSPKKQPARN [YCL063W 173-186] — higher, 331
- NYIPPDPPKDIQLN [YBR216C 239-252] — lower, 254
- NPPPVPPPRNVTAM [YNL176C 548-561] — higher, 14200
- NNGPKIPQKNTIDS [YKR029C 581-594] — higher, 424
- NNAPTLPKRKNPKI [YPR055W 477-490] — higher, 40800
- NSPPVYPKRIRHFE [YDR061W 22-35] — higher, 23100
- NVQPRKPSRVHSRN [YFR022W 634-647] — higher, 19900
- NNNPVPPQKINQPP [YDL203C 198-211] — lower, 212
- NNTPIVPEKFSNDL [YKR004C 249-262] — lower, 194
- NYAPRLPRRETSSS [YIL061C 231-244] — higher, 29100
- NSMPNVPVRLKLHT [YKL208W 152-165] — higher, 20400
- NVDPASPWRHELLS [YGL107C 76-89] — lower, 63
- NWSPNIPLRYSDFA [YOL017W 129-142] — higher, 3720
- NSPPTTPSKDESGP [YMR190C 45-58] — lower, 101
- NSSPMSPLKEKYVL [YOR299W 430-443] — lower, 282
- PASPTPPYRSRETE [YLR457C 288-301] — higher, 933
- NTVPSTPSRSNSVL [YKL038W 137-150] — higher, 26300
- NYQPKPPIREGNGP [YLR213C 97-110] — lower, 114

Target: T2, Boi1 SH3 (BOI1_YEAST), P38041
Test: SPOT array

Point of comparison: NSPPVYPKRIRHFE [YDR061W 22-35], normalised SPOT signal, Boehringer light units (BLU); mean over the file's lines of this peptide 8630. Against it:
- NSNPIDPLRSDRSV [YNL144C 502-515] — lower, 274
- NSRPQQPERRRFNS [YOR042W 296-309] — lower, 7150
- NQAPLEPLKPTATG [YIR006C 229-242] — lower, 115
- NSLPSSPKKQPARN [YCL063W 173-186] — lower, 57.1
- NYIPPDPPKDIQLN [YBR216C 239-252] — lower, 182
- NPPPVPPPRNVTAM [YNL176C 548-561] — lower, 180
- NNGPKIPQKNTIDS [YKR029C 581-594] — lower, 44.6
- NNAPTLPKRKNPKI [YPR055W 477-490] — lower, 2740
- NVQPRKPSRVHSRN [YFR022W 634-647] — lower, 899
- NNNPVPPQKINQPP [YDL203C 198-211] — lower, 21.2
- NNTPIVPEKFSNDL [YKR004C 249-262] — lower, 69.3
- NYAPRLPRRETSSS [YIL061C 231-244] — lower, 3860
- NSMPNVPVRLKLHT [YKL208W 152-165] — lower, 5300
- NVDPASPWRHELLS [YGL107C 76-89] — lower, 72.9
- NRKPAEPTKPNNLD [YML075C 1024-1037] — lower, 51.4
- NWSPNIPLRYSDFA [YOL017W 129-142] — lower, 1070
- NSPPTTPSKDESGP [YMR190C 45-58] — lower, 43.4
- NSSPMSPLKEKYVL [YOR299W 430-443] — lower, 42.6
- PASPTPPYRSRETE [YLR457C 288-301] — lower, 51.2
- NTVPSTPSRSNSVL [YKL038W 137-150] — lower, 45.3
- NYQPKPPIREGNGP [YLR213C 97-110] — lower, 43.5

Target: T3, Boi2 SH3 (BOI2_YEAST), P39969
Test: SPOT array

Point of comparison: NNGPKIPQKNTIDS [YKR029C 581-594], normalised SPOT signal, Boehringer light units (BLU); mean over the file's lines of this peptide 27.3. Against it:
- NSNPIDPLRSDRSV [YNL144C 502-515] — higher, 45.3
- NSRPQQPERRRFNS [YOR042W 296-309] — higher, 2470
- NQAPLEPLKPTATG [YIR006C 229-242] — lower, 14.5
- NSLPSSPKKQPARN [YCL063W 173-186] — higher, 31.8
- NYIPPDPPKDIQLN [YBR216C 239-252] — higher, 40.9
- NPPPVPPPRNVTAM [YNL176C 548-561] — higher, 42.3
- NNAPTLPKRKNPKI [YPR055W 477-490] — higher, 62.5
- NSPPVYPKRIRHFE [YDR061W 22-35] — higher, 3110
- NVQPRKPSRVHSRN [YFR022W 634-647] — higher, 1310
- NNNPVPPQKINQPP [YDL203C 198-211] — higher, 43.4
- NNTPIVPEKFSNDL [YKR004C 249-262] — higher, 27.9
- NYAPRLPRRETSSS [YIL061C 231-244] — higher, 4640
- NSMPNVPVRLKLHT [YKL208W 152-165] — higher, 2750
- NVDPASPWRHELLS [YGL107C 76-89] — lower, 8.5
- NRKPAEPTKPNNLD [YML075C 1024-1037] — higher, 96.2
- NWSPNIPLRYSDFA [YOL017W 129-142] — higher, 574
- NSPPTTPSKDESGP [YMR190C 45-58] — higher, 29.9
- NSSPMSPLKEKYVL [YOR299W 430-443] — higher, 65.1
- PASPTPPYRSRETE [YLR457C 288-301] — higher, 31
- NTVPSTPSRSNSVL [YKL038W 137-150] — higher, 46.6
- NYQPKPPIREGNGP [YLR213C 97-110] — higher, 53.8

Target: T4, Yhr016c SH3 (YSC84_YEAST), P32793
Test: SPOT array

Point of comparison: NQAPLEPLKPTATG [YIR006C 229-242], normalised SPOT signal, Boehringer light units (BLU); mean over the file's lines of this peptide 208. Against it:
- NSNPIDPLRSDRSV [YNL144C 502-515] — lower, 67.7
- NSRPQQPERRRFNS [YOR042W 296-309] — higher, 14500
- NSLPSSPKKQPARN [YCL063W 173-186] — lower, 199
- NYIPPDPPKDIQLN [YBR216C 239-252] — lower, 79.4
- NPPPVPPPRNVTAM [YNL176C 548-561] — higher, 12200
- NNGPKIPQKNTIDS [YKR029C 581-594] — lower, 74.1
- NNAPTLPKRKNPKI [YPR055W 477-490] — higher, 45600
- NSPPVYPKRIRHFE [YDR061W 22-35] — higher, 22100
- NVQPRKPSRVHSRN [YFR022W 634-647] — higher, 5260
- NNNPVPPQKINQPP [YDL203C 198-211] — lower, 20.2
- NNTPIVPEKFSNDL [YKR004C 249-262] — higher, 272
- NYAPRLPRRETSSS [YIL061C 231-244] — higher, 50300
- NSMPNVPVRLKLHT [YKL208W 152-165] — higher, 11000
- NVDPASPWRHELLS [YGL107C 76-89] — higher, 271
- NRKPAEPTKPNNLD [YML075C 1024-1037] — higher, 234
- NWSPNIPLRYSDFA [YOL017W 129-142] — higher, 1410
- NSPPTTPSKDESGP [YMR190C 45-58] — higher, 293
- NSSPMSPLKEKYVL [YOR299W 430-443] — higher, 442
- PASPTPPYRSRETE [YLR457C 288-301] — higher, 729
- NTVPSTPSRSNSVL [YKL038W 137-150] — higher, 9290
- NYQPKPPIREGNGP [YLR213C 97-110] — lower, 156

Target: T5, Rvs167 SH3 (RV167_YEAST), P39743
Test: SPOT array

Point of comparison: NSNPIDPLRSDRSV [YNL144C 502-515], normalised SPOT signal, Boehringer light units (BLU); mean over the file's lines of this peptide 22.8. Against it:
- NSRPQQPERRRFNS [YOR042W 296-309] — higher, 3880
- NQAPLEPLKPTATG [YIR006C 229-242] — higher, 37.7
- NSLPSSPKKQPARN [YCL063W 173-186] — higher, 211
- NYIPPDPPKDIQLN [YBR216C 239-252] — higher, 176
- NPPPVPPPRNVTAM [YNL176C 548-561] — higher, 1190
- NNGPKIPQKNTIDS [YKR029C 581-594] — higher, 26.5
- NNAPTLPKRKNPKI [YPR055W 477-490] — higher, 19800
- NSPPVYPKRIRHFE [YDR061W 22-35] — higher, 3590
- NVQPRKPSRVHSRN [YFR022W 634-647] — higher, 1900
- NNNPVPPQKINQPP [YDL203C 198-211] — higher, 46.9
- NNTPIVPEKFSNDL [YKR004C 249-262] — lower, 3.8
- NYAPRLPRRETSSS [YIL061C 231-244] — higher, 28000
- NSMPNVPVRLKLHT [YKL208W 152-165] — higher, 2480
- NVDPASPWRHELLS [YGL107C 76-89] — higher, 33.4
- NRKPAEPTKPNNLD [YML075C 1024-1037] — higher, 91.3
- NWSPNIPLRYSDFA [YOL017W 129-142] — higher, 189
- NSPPTTPSKDESGP [YMR190C 45-58] — higher, 40.1
- NSSPMSPLKEKYVL [YOR299W 430-443] — higher, 69.2
- PASPTPPYRSRETE [YLR457C 288-301] — lower, 13.1
- NTVPSTPSRSNSVL [YKL038W 137-150] — higher, 387
- NYQPKPPIREGNGP [YLR213C 97-110] — higher, 79.4

Reference: paper PMC314469, “Protein Interaction Networks by Proteome Peptide Scanning” (PLoS Biology, 2004)
